Here are results for 97 substances from the supplement of paper PMC12042874.

The nature of the data set: amyloid nucleation score (Sup35N fusion, yeast selection) (log enrichment); library NNK3; higher = more nucleation; inactive = no reads after selection. The procedure, abridged:
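The nucleation score, computed with DiMSum, is the log enrichment of output over input reads, centred on the mode score of non-aggregating sequences. Sequences with under 100 input reads were dropped. Reads were generated by Illumina sequencing of plasmid inserts from psi-negative yeast with Sup35N fused to peptides of 20 random codons, induced with 100 μM copper sulfate for 24 hours and grown 7 days at 30°C on medium lacking adenine and uracil.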

± gives the uncertainty stated by the source.

Consider VSDDLMDGSKNVLFARVEGD, for which the amyloid nucleation score entry is “inactive”.

As for VVSLESSAVVNGWLWVLAGA, the amyloid nucleation score result is “inactive”.

ASDCWLFIGNAGSFTGKRSC: the amyloid nucleation score result was “inactive”.

Take FWKACTCI: the amyloid nucleation score entry was “inactive”.

In the case of NVSLVTVWWDNHY, the amyloid nucleation score entry was “inactive”.

In turn, RVIIRNANSILGTPQSDHNQ returned an amyloid nucleation score of 0.706 ± 0.18.

For the substance LNRSSLYFF, the amyloid nucleation score entry was “inactive”.

On to AYKNRSFFLVVVITYNRVMP, for which the amyloid nucleation score entry was “inactive”.

As for FLRMHVRGFDTFRARQ, the amyloid nucleation score result was “inactive”.

MSIVAGENLIGKV: the amyloid nucleation score result was “inactive”.

For the substance YFRNHSRVDDLDGGRRDVFR, the amyloid nucleation score result was “inactive”.

As to WLLKIMQYLDLAGNG, the amyloid nucleation score entry is “inactive”.

As for RSYKRYSSSYLIIWGWVNMC, the amyloid nucleation score entry is “inactive”.

EGRFLKLFWSGSL came in with an amyloid nucleation score of -0.108 ± 0.51.

For the substance ELRTNYRKLLSSQAEVGCMV, the amyloid nucleation score result was “inactive”.

As to IEVGYITWKSARVWATNSSH, the amyloid nucleation score result was “inactive”.

Consider FTHNHK, for which the amyloid nucleation score result was “inactive”.

Turning to DFWLHCGDK, the amyloid nucleation score entry is “inactive”.

As for FLCIVSAYF, the amyloid nucleation score result is “inactive”.

KWSLFLYRHGWCRLAGTLLV yielded an amyloid nucleation score of -0.443 ± 1.

Regarding YFSRLTYCSRNSSCWILYCF, the amyloid nucleation score entry is “inactive”.

Turning to YQCTKMRLVSFRTVVLVLRG, the amyloid nucleation score came to 0.04 ± 0.8.

Consider RYLSMELSQEYLFLVVSLVW, for which the amyloid nucleation score entry is “inactive”.

LNCVSQMRVDRDANYSCNFF had an amyloid nucleation score of -0.142 ± 0.78.

Turning to GTMSNYPNGFSMSSSYFSTY, the amyloid nucleation score entry was “inactive”.

Take IHDDSKNGK: the amyloid nucleation score was found to be 0.57 ± 0.16.

Take SCKVTKHGYVKEDFIGLCSY: the amyloid nucleation score result was “inactive”.

Consider GVDDSLLKMRETCSRFGLTV, for which the amyloid nucleation score entry is “inactive”.

With PYSTFLLCQGLTNYMYSSMS, the amyloid nucleation score result is “inactive”.

As for CYEPVAGVFCMRIGLTVVGN, the amyloid nucleation score entry is “inactive”.

For the substance CSLTKAVFQRQPLRRSKGTK, the amyloid nucleation score result is “inactive”.

The substance AQSYSCFRNHFTDAVVCVFS came in with an amyloid nucleation score of -0.496 ± 1.5.

Consider ASTQRMYMSLLVDGWVTIRL, for which the amyloid nucleation score entry is “inactive”.

For EGPNTVNCPTAS, the amyloid nucleation score result is “inactive”.

Consider LKVPSVVNR, for which the amyloid nucleation score result is “inactive”.

As to RKLCINGCVFTAMREFC, the amyloid nucleation score result was “inactive”.

In the case of VSLFYKCSYNGVYNNRVLAP, the amyloid nucleation score stood at 1.43 ± 0.09.

Turning to VYKWECKDRKYGWRYCAETW, the amyloid nucleation score result was “inactive”.

Turning to MFFWMCE, the amyloid nucleation score result is “inactive”.

On to PFGGMVLLILNDAFSMVYVS, for which the amyloid nucleation score result is “inactive”.

Regarding FVSVLACSDKLGK, the amyloid nucleation score result was “inactive”.

On to YLLDLTTVCAGPWRIPQLMK, for which the amyloid nucleation score entry was “inactive”.

On to ASLRLLVLVNSMWVGFFFNS, for which the amyloid nucleation score entry is “inactive”.

Take KKRGHEWFVIIKSARGASKR: the amyloid nucleation score result was “inactive”.

The substance YIVLAPCWCHIGSIDLAVPH came in with an amyloid nucleation score of 3.01 ± 0.06.

Substance YQLELSSGSM came in with an amyloid nucleation score of 0.116 ± 0.28.

As for SQVVDW, the amyloid nucleation score entry is “inactive”.

As for KNNGTSKGVCRLQIMLFGLA, the amyloid nucleation score entry was “inactive”.

Consider FMLRFPLPPSKIHVRYMPTC, for which the amyloid nucleation score entry is “inactive”.

For RANSIC, the amyloid nucleation score entry is “inactive”.

In the case of VQRGSTALVFDVSTSIFMNI, the amyloid nucleation score stood at 1.57 ± 0.12.

On to MRRKDKNIRVDYRVAGGYRD, for which the amyloid nucleation score result was “inactive”.

For the substance HFRYY, the amyloid nucleation score result was “inactive”.

For TRNLPTN, the amyloid nucleation score result is “inactive”.

YIFFMDLNYLSSNSITVRAV: the amyloid nucleation score turned out to be 1.53 ± 0.074.

As to AYALALCLRE, the amyloid nucleation score result was “inactive”.

For the substance RPDCEYGSS, the amyloid nucleation score result is “inactive”.

LKVFKWKISTLMKAAQPIAS: the amyloid nucleation score entry was “inactive”.

As to RARMV, the amyloid nucleation score result is “inactive”.

On to CRFKGCWYSRTLRRRRSVIV, for which the amyloid nucleation score result is “inactive”.

For QTLRGCSNCRTRVGC, the amyloid nucleation score entry is “inactive”.

As to TFRLKGALRKVVW, the amyloid nucleation score entry was “inactive”.

VWFLLSILPHLTKSVSWGNT: the amyloid nucleation score entry is “inactive”.

MCEGAIQQRILLSMKFCCKW registered an amyloid nucleation score of 0.037 ± 0.87.

On to SVIYVLYKVW, for which the amyloid nucleation score result is “inactive”.

Consider VLWAFNLMLVDWRIRFQNWA, for which the amyloid nucleation score result is “inactive”.

In the case of KKMLEKKI, the amyloid nucleation score entry is “inactive”.

Turning to VCVLMIFNIVRRGMYSSARV, the amyloid nucleation score result is “inactive”.

Turning to PLVYLGSLSGDQHWLYFSKE, the amyloid nucleation score entry was “inactive”.

The substance CFETCLSAVGHSIQAQKLSG displayed an amyloid nucleation score of 0.193 ± 0.29.

Substance LVEISTVERRALIFYRCIDL yielded an amyloid nucleation score of -0.481 ± 1.4.

SRILGNRMAFTA: the amyloid nucleation score result was “inactive”.

Regarding LSNDF, the amyloid nucleation score result was “inactive”.

In turn, NGPEGSLFDLSDFCHFCLNR gave an amyloid nucleation score of 0.955 ± 0.14.

Regarding TEGRVQMWRINALRECTGSS, the amyloid nucleation score result was “inactive”.

With YFRQFSVYYLFFNLMYILHA, the amyloid nucleation score entry was “inactive”.

VHAMWKSICNTSCML registered an amyloid nucleation score of 2.53 ± 0.052.

For the substance RSEVQHKLVSFLSKLIPRAS, the amyloid nucleation score result is “inactive”.

As for PDGTQINFN, the amyloid nucleation score entry was “inactive”.

Regarding VSFCGTPFFYHWRHSNWLFK, the amyloid nucleation score entry was “inactive”.

NLCFCALCGKYIRVNVVAM showed an amyloid nucleation score of 1.52 ± 0.088.

KFYLILVA: the amyloid nucleation score result is “inactive”.

Consider WDTILDLGGNDVEGSFPVTE, for which the amyloid nucleation score result is “inactive”.

As for LWTELYVYPLNMTVMVAIF, the amyloid nucleation score result is “inactive”.

In the case of NGFKEGLIAVLREQYLSYQ, the amyloid nucleation score entry is “inactive”.

For YCGEYYITGNMRLPLSTPSG, the amyloid nucleation score entry was “inactive”.

On to HPVYMVSTRWRRGGSDWV, for which the amyloid nucleation score result was “inactive”.

Take NRVPQWRRRQVGGD: the amyloid nucleation score result was “inactive”.

For the substance MNFVPTLRSIVVGRWRDLEV, the amyloid nucleation score entry was “inactive”.

As for ALVDILFLDLGLTLDLRVGL, the amyloid nucleation score result was “inactive”.

Take RASKRLCWSG: the amyloid nucleation score entry is “inactive”.

Consider IRRLSSVCMGCSWYL, for which the amyloid nucleation score result was “inactive”.

Regarding QLIVRSGKDSGVLWNLGQYR, the amyloid nucleation score result was “inactive”.

In the case of NNRLMYTSHISHACSYQMLK, the amyloid nucleation score entry is “inactive”.

Regarding SFLCLISIHCTDNDNGMHNC, the amyloid nucleation score result is “inactive”.

RMLRNF returned an amyloid nucleation score of -0.466 ± 1.9.

For the substance LRTGCSYNSREGHNTLGRSS, the amyloid nucleation score result was “inactive”.
